What was measured:
[1] = biological target: T1, 2XMBP-BRC4-DBD (Homo sapiens, UniProt P51587;P51587 1496-1589;2153-3418); test: EMSA
T1 chain 1: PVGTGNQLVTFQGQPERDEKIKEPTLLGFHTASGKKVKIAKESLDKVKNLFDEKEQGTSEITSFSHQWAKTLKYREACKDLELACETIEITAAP
T1 chain 2: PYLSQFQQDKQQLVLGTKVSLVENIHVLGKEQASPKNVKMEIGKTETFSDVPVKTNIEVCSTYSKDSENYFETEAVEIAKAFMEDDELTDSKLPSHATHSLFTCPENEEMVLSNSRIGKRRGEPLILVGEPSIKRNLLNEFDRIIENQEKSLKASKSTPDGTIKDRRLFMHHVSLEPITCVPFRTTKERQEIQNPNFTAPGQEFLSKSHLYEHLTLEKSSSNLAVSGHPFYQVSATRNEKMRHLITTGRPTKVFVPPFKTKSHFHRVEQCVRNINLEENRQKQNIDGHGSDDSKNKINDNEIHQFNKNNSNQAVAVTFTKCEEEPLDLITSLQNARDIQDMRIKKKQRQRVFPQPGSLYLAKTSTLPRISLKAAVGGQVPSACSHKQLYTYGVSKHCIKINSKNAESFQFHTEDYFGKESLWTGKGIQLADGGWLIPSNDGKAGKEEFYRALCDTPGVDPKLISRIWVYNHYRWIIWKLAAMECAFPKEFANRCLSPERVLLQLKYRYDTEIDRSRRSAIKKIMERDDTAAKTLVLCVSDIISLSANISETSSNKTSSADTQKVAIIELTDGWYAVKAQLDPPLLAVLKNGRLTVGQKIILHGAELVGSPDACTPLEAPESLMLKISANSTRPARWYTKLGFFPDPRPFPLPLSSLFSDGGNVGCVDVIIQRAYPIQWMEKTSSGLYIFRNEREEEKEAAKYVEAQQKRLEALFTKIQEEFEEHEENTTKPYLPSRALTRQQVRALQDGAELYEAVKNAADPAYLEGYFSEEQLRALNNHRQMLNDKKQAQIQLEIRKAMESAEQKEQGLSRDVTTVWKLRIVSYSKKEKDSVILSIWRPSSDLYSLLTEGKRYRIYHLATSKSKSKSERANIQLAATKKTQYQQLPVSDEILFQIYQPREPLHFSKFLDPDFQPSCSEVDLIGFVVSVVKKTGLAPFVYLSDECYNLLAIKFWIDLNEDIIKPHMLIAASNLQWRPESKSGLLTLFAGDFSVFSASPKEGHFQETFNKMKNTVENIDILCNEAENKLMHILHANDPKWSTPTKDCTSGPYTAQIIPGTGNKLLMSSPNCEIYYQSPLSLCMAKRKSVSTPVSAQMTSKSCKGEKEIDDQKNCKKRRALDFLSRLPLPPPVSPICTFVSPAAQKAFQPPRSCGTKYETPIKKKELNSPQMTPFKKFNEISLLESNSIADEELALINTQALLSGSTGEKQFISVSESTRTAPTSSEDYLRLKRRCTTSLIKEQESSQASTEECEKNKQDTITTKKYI

[2] = biological target: 2XMBP-BRC5-8-DBD (Homo sapiens, UniProt P51587 1596-3418); test: EMSA
[3] = biological target: 2XMBP-BRC1-8-DBD (Homo sapiens, UniProt P51587 993-3418); test: EMSA
[4] = biological target: T2, 2XMBP-BRC1-4-DBD (Homo sapiens, UniProt P51587;P51587 993-1589;2153-3418); test: EMSA
T2 chain 1: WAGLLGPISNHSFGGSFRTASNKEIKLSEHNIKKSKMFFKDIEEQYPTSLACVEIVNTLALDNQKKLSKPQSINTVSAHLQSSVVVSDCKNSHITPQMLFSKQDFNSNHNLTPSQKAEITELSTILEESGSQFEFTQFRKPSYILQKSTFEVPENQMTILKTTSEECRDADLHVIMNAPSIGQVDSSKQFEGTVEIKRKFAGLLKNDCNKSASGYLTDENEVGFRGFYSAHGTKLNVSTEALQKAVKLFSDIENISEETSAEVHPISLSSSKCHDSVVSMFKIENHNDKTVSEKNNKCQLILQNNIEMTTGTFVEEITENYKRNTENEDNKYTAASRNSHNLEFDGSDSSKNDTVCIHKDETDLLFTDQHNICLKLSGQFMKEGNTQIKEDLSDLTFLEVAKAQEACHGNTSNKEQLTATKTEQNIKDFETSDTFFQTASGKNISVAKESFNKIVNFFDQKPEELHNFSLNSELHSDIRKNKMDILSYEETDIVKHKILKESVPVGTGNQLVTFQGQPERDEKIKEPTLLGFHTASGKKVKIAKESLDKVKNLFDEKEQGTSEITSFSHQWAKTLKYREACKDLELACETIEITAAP
T2 chain 2: T1 chain 2

[5] = biological target: T3, 2XMBP-BRCA2 DBD (Homo sapiens, UniProt P51587 2153-3418); test: EMSA
T3 sequence: T1 chain 2

[6] = biological target: T3, 2XMBP-BRCA2 DBD; test: pull-down
[7] = biological target: RAD51;2XMBP-BRC1-8-DBD (Homo sapiens;Homo sapiens, UniProt Q06609;P51587 1-339;993-3418, |); test: pull-down
[8] = biological target: RAD51;2XMBP-BRC5-8-DBD (Homo sapiens;Homo sapiens, UniProt Q06609;P51587 1-339;1596-3418, |); test: pull-down
[9] = biological target: RAD51;2XMBP-BRC1-4-DBD (Homo sapiens;Homo sapiens, UniProt Q06609;P51587;P51587 1-339;993-1589;2153-3418, |); test: pull-down

Measured: binding result

RAD51;2XMBP-BRC1-4-DBD, sequence (Q06609 whole entry, one chain of several): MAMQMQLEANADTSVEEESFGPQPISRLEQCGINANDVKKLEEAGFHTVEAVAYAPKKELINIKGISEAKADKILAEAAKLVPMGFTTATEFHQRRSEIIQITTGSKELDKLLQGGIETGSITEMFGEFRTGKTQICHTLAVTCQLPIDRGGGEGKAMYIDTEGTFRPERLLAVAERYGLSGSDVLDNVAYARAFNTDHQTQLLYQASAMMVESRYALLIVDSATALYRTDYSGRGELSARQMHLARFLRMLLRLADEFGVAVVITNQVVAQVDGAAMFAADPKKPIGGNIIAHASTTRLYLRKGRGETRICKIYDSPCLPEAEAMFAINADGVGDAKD
RAD51;2XMBP-BRC1-8-DBD, sequence (Q06609 whole entry, one chain of several): as above
RAD51;2XMBP-BRC5-8-DBD, sequence (Q06609 whole entry, one chain of several): as above

B1: 3' tail DNA (RJ-167-mer / RJ-PHIX-42-1) (mixed)
DNA 1: CTGCTTTATCAAGATAATTTTTCGACTCATCAGAAATATCCGTTTCCTATATTTATTCCTATTATGTTTTATTCATTTACTTATTCTTTATGTTCATTTTTTATATCCTTTACTTTATTTTCTCTGTTTATTCATTTACTTATTTTGTATTATCCTTATCTTATTTA
DNA 2: CGGATATTTCTGATGAGTCGAAAAATTATCTTGATAAAGCAG
binds: [1] | [2] | [3] | [4] | [5]

B2: biotinylated ssDNA RJ-167-mer (ssDNA)
DNA: B1 DNA 1
binds: [6] | [7] | [8] | [9]

Source: publication PMC4914107 (Nucleic Acids Research, 2016)
